Reference: patent publication US20200024330A1

Legend:
Assay in all cases: cell-based or functional assay
[1] = target: HIV-1 Env of isolate MGRM-G-017 (subtype G) (HIV-1)
[2] = target: HIV-1 envelope glycoprotein (Env) of isolate MGRM-C-017, on pseudovirus (HIV-1)
[3] = target: HIV-1 Env of isolate MGRM-G-027 (subtype G) (HIV-1)
[4] = target: HIV-1 Env of isolate MGRM-AG-006 (HIV-1)
[5] = target: HIV-1 Env of isolate MGRM-AG-009 (HIV-1)
[6] = target: HIV-1 envelope glycoprotein (Env) of isolate MGRM-C-023, on pseudovirus (HIV-1)
[7] = target: aMLV envelope (negative control pseudovirus)
[8] = target: HIV-1 Env of isolate MGRM-AE-008 (HIV-1)
[9] = target: HIV-1 envelope glycoprotein (Env) of isolate MGRM-C-015, on pseudovirus (HIV-1)
[10] = target: HIV-1 Env of isolate MGRM-AE-007 (HIV-1)
[11] = target: HIV-1 Env of isolate MGRM-AG-005 (HIV-1)
[12] = target: HIV-1 Env of isolate MGRM-AG-013 (HIV-1)
[13] = target: HIV-1 Env of isolate MGRM-AG-002 (HIV-1)
[14] = target: HIV-1 Env of isolate MGRM-G-006 (subtype G) (HIV-1)
[15] = target: HIV-1 envelope glycoprotein (Env) of isolate MGRM-C-014, on pseudovirus (HIV-1)
[16] = target: HIV-1 Env of isolate MGRM-G-024 (subtype G) (HIV-1)
[17] = target: HIV-1 envelope glycoprotein (Env) of isolate MGRM-C-020, on pseudovirus (HIV-1)
[18] = target: HIV-1 Env of isolate MGRM-G-013 (subtype G) (HIV-1)
[19] = target: HIV-1 Env of isolate MGRM-AG-003 (HIV-1)
[20] = target: HIV-1 Env of isolate MGRM-AG-012 (HIV-1)
[21] = target: HIV-1 envelope glycoprotein (Env) of isolate MGRM-C-025, on pseudovirus (HIV-1)
[22] = target: HIV-1 envelope glycoprotein (Env) of isolate MGRM-C-027, on pseudovirus (HIV-1)
[23] = target: HIV-1 Env of isolate MGRM-G-001 (subtype G) (HIV-1)
[24] = target: HIV-1 Env of isolate MGRM-AG-011 (HIV-1)
[25] = target: HIV-1 Env of isolate MGRM-G-015 (subtype G) (HIV-1)
[26] = target: HIV-1 envelope glycoprotein (Env) of isolate MGRM-C-026, on pseudovirus (HIV-1)
[27] = target: HIV-1 Env of isolate MGRM-AG-008 (HIV-1)
[28] = target: HIV-1 Env of isolate MGRM-G-004 (subtype G) (HIV-1)
[29] = target: HIV-1 envelope glycoprotein (Env) of isolate MGRM-C-024, on pseudovirus (HIV-1)
[30] = target: HIV-1 Env of isolate MGRM-G-016 (subtype G) (HIV-1)
[31] = target: HIV-1 envelope glycoprotein (Env) of isolate MGRM-C-028, on pseudovirus (HIV-1)
[32] = target: HIV-1 envelope glycoprotein (Env) of isolate MGRM-C-022, on pseudovirus (HIV-1)
[33] = target: HIV-1 Env of isolate MGRM-AG-001 (HIV-1)
[34] = target: HIV-1 envelope glycoprotein (Env) of isolate MGRM-C-019, on pseudovirus (HIV-1)
[35] = target: HIV-1 Env of isolate MGRM-G-014 (subtype G) (HIV-1)
[36] = target: HIV-1 Env of isolate MGRM-G-019 (subtype G) (HIV-1)
[37] = target: HIV-1 Env of isolate MGRM-G-011 (subtype G) (HIV-1)
[38] = target: HIV-1 Env of isolate MGRM-G-009 (subtype G) (HIV-1)
[39] = target: HIV-1 Env of isolate MGRM-G-025 (subtype G) (HIV-1)
[40] = target: HIV-1 Env of isolate MGRM-G-028 (subtype G) (HIV-1)

With PGT-145 (4995_P16) (antibody) the neutralization IC50 [1] was 0.205 µg/mL, the IC50, pseudovirus neutralization [2] was > 50 µg/mL and the neutralization IC50 [3] was 0.433 µg/mL. The IC50 [4] was 6.6 µg/mL, the IC50 [5] was > 50 µg/mL and the IC50, pseudovirus neutralization [6] was 0.201 µg/mL. For the same substance, the neutralization IC50 [7] was > 50 µg/mL, the IC50 [8] was 1.46 µg/mL and the IC50, pseudovirus neutralization [9] was 0.12 µg/mL. For the same substance, the IC50 [10] was 0.181 µg/mL, the IC50 [11] was 0.045 µg/mL and the IC50 [12] was 14.4 µg/mL. For the same substance, the IC50 [13] was 0.056 µg/mL, the neutralization IC50 [14] was 0.286 µg/mL and the IC50, pseudovirus neutralization [15] was 5.82 µg/mL. For the same substance, the neutralization IC50 [16] was 0.06 µg/mL, the IC50, pseudovirus neutralization [17] was 0.712 µg/mL and the neutralization IC50 [18] was > 50 µg/mL. For the same substance, the IC50 [19] was > 50 µg/mL, the IC50 [20] was > 50 µg/mL and the IC50, pseudovirus neutralization [21] was 0.044 µg/mL. It also gave an IC50, pseudovirus neutralization [22] of 0.095 µg/mL, a neutralization IC50 [23] of 0.028 µg/mL and an IC50 [24] of 0.003 µg/mL. The neutralization IC50 [25] was 10.5 µg/mL, the IC50, pseudovirus neutralization [26] was > 50 µg/mL and the IC50 [27] was 0.244 µg/mL. For the same substance, the neutralization IC50 [28] was > 50 µg/mL, the IC50, pseudovirus neutralization [29] was 0.174 µg/mL and the neutralization IC50 [30] was 0.081 µg/mL. The IC50, pseudovirus neutralization [31] was 0.099 µg/mL, the IC50, pseudovirus neutralization [32] was 0.492 µg/mL and the IC50 [33] was 0.164 µg/mL. It also gave an IC50, pseudovirus neutralization [34] of 0.005 µg/mL, a neutralization IC50 [35] of 0.144 µg/mL and a neutralization IC50 [36] of 0.041 µg/mL. The neutralization IC50 [37] was 0.028 µg/mL, the neutralization IC50 [38] was 0.982 µg/mL and the neutralization IC50 [39] was > 50 µg/mL. For the same substance, the neutralization IC50 [40] was 0.046 µg/mL.
